Results reported in patent EP4785956A2 (CHUGAI SEIYAKU KABUSHIKI KAISHA, dated 2026).

T1: recombinant cynomolgus monkey C5 (cynomolgus monkey, UniProt P01031 19-1676 (human entry), limits assumed)
T1 construct: also called cynoC5
T1 chain: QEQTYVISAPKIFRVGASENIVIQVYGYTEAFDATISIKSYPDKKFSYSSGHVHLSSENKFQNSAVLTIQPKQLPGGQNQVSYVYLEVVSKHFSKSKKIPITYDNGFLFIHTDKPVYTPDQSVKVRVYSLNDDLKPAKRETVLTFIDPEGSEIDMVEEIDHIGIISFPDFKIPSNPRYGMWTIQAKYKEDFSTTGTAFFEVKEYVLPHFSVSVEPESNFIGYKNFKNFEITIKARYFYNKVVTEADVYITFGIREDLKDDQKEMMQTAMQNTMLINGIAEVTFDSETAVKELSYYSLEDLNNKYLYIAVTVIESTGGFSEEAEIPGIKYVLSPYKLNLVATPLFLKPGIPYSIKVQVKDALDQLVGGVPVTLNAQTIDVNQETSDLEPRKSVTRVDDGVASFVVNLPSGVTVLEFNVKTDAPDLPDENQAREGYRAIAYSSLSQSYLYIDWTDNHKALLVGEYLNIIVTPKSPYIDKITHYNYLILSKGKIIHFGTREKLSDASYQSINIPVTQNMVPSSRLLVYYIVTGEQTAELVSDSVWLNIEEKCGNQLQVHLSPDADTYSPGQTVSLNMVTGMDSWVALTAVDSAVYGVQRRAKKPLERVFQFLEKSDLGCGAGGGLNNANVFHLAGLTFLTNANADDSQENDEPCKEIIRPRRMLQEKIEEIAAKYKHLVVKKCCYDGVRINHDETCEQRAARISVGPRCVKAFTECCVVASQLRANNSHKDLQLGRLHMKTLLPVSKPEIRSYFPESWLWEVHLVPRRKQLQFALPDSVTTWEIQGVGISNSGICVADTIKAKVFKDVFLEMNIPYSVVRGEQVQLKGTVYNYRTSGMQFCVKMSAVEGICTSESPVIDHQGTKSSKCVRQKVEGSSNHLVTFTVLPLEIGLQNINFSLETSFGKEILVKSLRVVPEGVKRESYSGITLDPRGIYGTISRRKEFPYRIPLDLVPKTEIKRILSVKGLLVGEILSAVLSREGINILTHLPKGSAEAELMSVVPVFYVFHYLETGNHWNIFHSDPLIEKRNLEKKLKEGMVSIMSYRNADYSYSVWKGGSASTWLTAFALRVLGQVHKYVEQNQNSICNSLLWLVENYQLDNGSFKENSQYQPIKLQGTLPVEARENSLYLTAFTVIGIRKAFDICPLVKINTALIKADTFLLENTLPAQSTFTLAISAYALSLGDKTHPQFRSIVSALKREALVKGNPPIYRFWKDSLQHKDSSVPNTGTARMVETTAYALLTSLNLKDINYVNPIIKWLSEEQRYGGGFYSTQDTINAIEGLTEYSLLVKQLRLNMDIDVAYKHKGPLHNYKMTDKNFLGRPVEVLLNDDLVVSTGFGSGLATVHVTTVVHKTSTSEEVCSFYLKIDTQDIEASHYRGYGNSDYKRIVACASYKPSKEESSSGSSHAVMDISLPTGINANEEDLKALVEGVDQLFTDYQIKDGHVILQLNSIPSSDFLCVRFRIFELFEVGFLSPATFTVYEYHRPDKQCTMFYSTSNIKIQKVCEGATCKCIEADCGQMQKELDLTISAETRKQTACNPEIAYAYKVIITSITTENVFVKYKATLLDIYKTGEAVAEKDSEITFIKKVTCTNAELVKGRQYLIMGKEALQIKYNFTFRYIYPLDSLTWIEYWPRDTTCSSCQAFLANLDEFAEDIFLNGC


Key:
[1] = target: T1, recombinant cynomolgus monkey C5; assay: SPR (BIACORE T200), antibody captured by ProA/G, recombinant cynoC5 injected, 37 degrees C, pH7.4
[2] = target: T2, recombinant human C5 (human, UniProt P01031 20-1676); assay: SPR (BIACORE T200), antibody captured by ProA/G, recombinant human C5 injected, 37 degrees C, pH5.8; pH 5.8
T2 construct: The same entry is used here for C5 in normal human serum in the functional rows; also called hC5; rhC5

[3] = target: T2, recombinant human C5; assay: SPR (BIACORE T200), antibody captured by ProA/G, recombinant human C5 injected, 37 degrees C, pH7.4; pH 7.4
[4] = target: T2, recombinant human C5; assay: SPR (BIACORE T200), ratio of kd of condition (2) and (1)

Row | Binder | koff [1] | kon [1] | koff [2] | kon [2] | koff [3] | kon [3] | pH dependency (ratio of dissociation rate at pH5.8 to that at pH7.4) [4]
1 | CFA0307 (antibody, V domains shown) VH: QSLEESGGGLVKPGASLTLTCKASGIDFSNFYYICWVRQAPGKGLDLIACIYTVSGYTYYASWAKGRLTISKTSSTTVTLQMTSLTAADTATYFCARDLHAGITNLWGPGTLVTVSS VL: AIEMTQTPFSVSAAVGGTVTIKCQASQNIYSNLAWYQQKPGQRPKLLIYGASNLESGVPSRFKGSGSGTEYTLTISDLECADAATYYCLQGYSYSNVDDAFGGGTEVVVK | 0.00223 s⁻¹ | 290000 M⁻¹ s⁻¹ | 0.0334 s⁻¹ | 204000 M⁻¹ s⁻¹ | 0.00263 s⁻¹ | 324000 M⁻¹ s⁻¹ | 
2 | CFA0599 (antibody, V domains shown) VH: QSVEESGGRLVTPGTPLTLTCTVSGLSLSDNTMTWVRQAPGKGLEWIGIISFGGDAYYASWAKGRFPISKTSTTVDLRITSPTTEDTATYFCARVGAGNIFWYFDLWGPGTLVTVSS VL: AYDMTQTPASVEVSVGGTVTIKCQASESIYSALAWYQQKPGQPPKLLIYSASTLASGVPSRFKGSGSGTEYTLTISDLECADAATYYCQQYYSSTNVHNSFGGGTTVVVE | 0.00235 s⁻¹ | 542000 M⁻¹ s⁻¹ | 0.0373 s⁻¹ | 454000 M⁻¹ s⁻¹ | 0.00281 s⁻¹ | 474000 M⁻¹ s⁻¹ | 
3 | CFA0305 (antibody, V domains shown) VH: QSLEESGGDLVKPGASLAVTCTASGFSSSSSYYMCWVRQAPGKGLEWIGCIYTGSGATYYASWAKGRFTISKTSSTTVTLQMTSLTVADTATYFCASDGGYVTPTHAMYLWGPGTLVTVSS VL: DVVMTQTPASVSAAVGGTVTIKCQASQNIGSDLAWYQQKPGQPPRLLIYGASKLASGVSSRFSGSGSGKEFTLTISDLECADAVTYYCQCTFVGSSYGNAFGGGTEVVVK | 0.00067 s⁻¹ | 12100 M⁻¹ s⁻¹ | 0.0183 s⁻¹ | 42700 M⁻¹ s⁻¹ | 0.000589 s⁻¹ | 38200 M⁻¹ s⁻¹ | 
4 | CFA0501 (antibody, V domains shown) VH: QSVEESGGRLVTPGTPLTLTCTASGFSLSSYYMNWVRQAPGKGLEWIGMIYGSGATYYASWAKGRFTISKTSSTTVDLKMTSLTTEDTATYFCARQIYSGDNNDNFWGPGTLVTVSS VL: AYDMTQTPASVEVAVGGTVTINCQASESISNWLAWYQQKPGQRPKLLIYRASTLASGVSSRFKGSGSGTQFTLTISGVECDDAATYYCQQDYSSSNVDNTFGGGTKVVVE | 0.00156 s⁻¹ | 266000 M⁻¹ s⁻¹ | 0.0262 s⁻¹ | 150000 M⁻¹ s⁻¹ | 0.00169 s⁻¹ | 474000 M⁻¹ s⁻¹ | 
5 | CFA0538 (antibody, V domains shown) VH: QSVEESGGRLVTPGTPLTLTCTASGFSLSSYYMNWVRQAPGKGLEWIGMIYGSGATYYASWAKGRFTISKTSSTTVDLKMTSLTTEDTATYFCARQIYSGDNNDNFWGPGTLVTVSS VL: AYDMTQTPASVEVAVGGTVTINCQASESISNWLAWYQQKPGQRPKLLIYRASTLASGVSSRFKGSGSGTQFTLTISGVECDDAATYYCQQDYSSSNVDNTFGGGTTVVVE | 0.00166 s⁻¹ | 305000 M⁻¹ s⁻¹ | 0.0301 s⁻¹ | 122000 M⁻¹ s⁻¹ | 0.00185 s⁻¹ | 473000 M⁻¹ s⁻¹ | 
6 | CFA0666 (antibody, V domains shown) VH: QSVEESGGRLVTPGTPLTLTCTVSGFSLSTYAMGWVRQAPGKGLEWIGTIDTGDNSFYANWAKGRFTISKTSTTVDLKITSPTAEDTATYFCARNDGSVYNLFNLWGPGTLVTVSS VL: DVVMTQTPASVSAAVGGTVTIKCQASENIYSALSWYQQKPGLRPRLLIYYASTLASGVPSRFKGSRSGTEFTLTISDLECADAATYYCQQYYDINSVDNTFGGGTKVVVE | 0.000493 s⁻¹ | 314000 M⁻¹ s⁻¹ | 0.00939 s⁻¹ | 282000 M⁻¹ s⁻¹ | 0.000626 s⁻¹ | 365000 M⁻¹ s⁻¹ | 
7 | CFA0675 (antibody, V domains shown) VH: QSVEESGGRLVTPGTPLTLTCTVSGFSLSTYAMGWVRQAPGKGLEWIGTIDTGDNSFYANWAKGRFTISRTSTTVDLKITSPTAEDTATYFCARNDGSVYNLFNLWGPGTLVTVSS VL: DVVMTQTPASVSAAVGGTVTIKCQASENIYSALSWYQQKPGLRPRLLIYYASTLASGVPSRFKGSRSGTEFTLTISDLECADAASYYCQQYYDINSVDNTFGGGTKVVVE | 0.000378 s⁻¹ | 294000 M⁻¹ s⁻¹ | 0.00661 s⁻¹ | 389000 M⁻¹ s⁻¹ | 0.000412 s⁻¹ | 383000 M⁻¹ s⁻¹ | 
8 | 305LO20-SG115 (antibody) heavy: QVQLVESGGGLVQPGGSLRLSCAASGFTVHSSYYMAWVRQAPGKGLEWVGAIFTGSGAEYKAEWAKGRVTISKDTSKNQVVLTMTNMDPVDTATYYCASDAGYDYPTHAMHYWGQGTLVTVSSASTKGPSVFPLAPSSKSTSGGTAALGCLVKDYFPEPVTVSWNSGALTSGVHTFPAVLQSSGLYSLSSVVTVPSSSLGTQTYICNVNHKPSNTKVDKKVEPKSCDKTHTCPPCPAPELRRGPKVFLFPPKPKDTLMISRTPEVTCVVVDVSHEDPEVKFNWYVDGVEVHNAKTKPREEQYNSTYRVVSVLTVLHQDWLNGKEYKCKVSNKGLPSSIEKTISKAKGQPREPQVYTLPPSREEMTKNQVSLTCLVKGFYPSDIAVEWESNGQPENNYKTTPPVLDSDGSFFLYSKLTVDKSRWQQGNVFSCSVLHEALHAHYTRKELSLSP light: DIQMTQSPSSLSASVGDRVTITCRASQGISSSLAWYQQKPGQAPRLLIYGASETESGVPSRFSGSGSGTDFTLTISSLQPEDFATYYCQNTKVGSSYGNTFGGGTKVEIKRTVAAPSVFIFPPSDEQLKSGTASVVCLLNNFYPREAKVQWKVDNALQSGNSQESVTEQDSKDSTYSLSSTLTLSKADYEKHKVYACEVTHQGLSSPVTKSFNRGEC |  |  |  |  |  |  | 17.5

The next lines start with the values.

Row | koff [1] | kon [1] | koff [2] | kon [2] | koff [3] | kon [3] | pH dependency (ratio of dissociation rate at pH5.8 to that at pH7.4) [4] | Binder
9 |  |  |  |  |  |  | 21.1 | 305LO16-SG422 (antibody, V domains shown) VH: QVQLVESGGGLVQPGRSLRLSCAASGFTVHSSYYMAWVRQAPGKGLEWVGAIFTGSGAEYKAEWVKGRFTISRDNSKNTLYLQMNSLRAEDTAVYYCASDAGYDYPTHAMHYWGRGTLVTVSS VL: DIQMTQSPSSLSASVGDRVTITCRASQGISSSLAWYQQKPGKAPKLLIYGASETESGVPSRFSGSGSGTDFTLTISSLQPEDFATYYCQNTKVGSSYGNTFGGGTKVEIKR
10 | 0.00185 s⁻¹ | 641000 M⁻¹ s⁻¹ | 0.00978 s⁻¹ | 71100 M⁻¹ s⁻¹ | 0.000183 s⁻¹ | 523000 M⁻¹ s⁻¹ |  | CFA0672 (antibody, V domains shown) VH: QSVEESGGRLVTPGTPLTLTCTASGFSLSGNAINWVRQAPGKGLEWIGCIYTGSDTTYYATWAKGRFTISKTSTTVDLKIASPTTEDTATYFCARGSGLWGPGTLVTVSS VL: DVVMTQTPASVSAPVGGTVTIKCQASQNIYSLLAWYQQKPGQPPKLLIYHTSDLASGVPSRFRGSGSGTEFTLTISDLECADAATYYCQCTAYGSSDVGGTFGGGTTVVVE
11 | 0.00904 s⁻¹ | 504000 M⁻¹ s⁻¹ | 0.0703 s⁻¹ | 935000 M⁻¹ s⁻¹ | 0.00934 s⁻¹ | 1.04e+06 M⁻¹ s⁻¹ |  | CFA0366 (antibody, V domains shown) VH: QSLEESGGDLVKPGASLSLTCTAAGLDFSSSYYMCWVRQAPGKGLEWIACIYAGSSGIIYYANWAKGRFTISRPSSTTVTLQMTSLTAADTATYFCATYPTYGDGGHAFNLWGPGTLVTVSS VL: AQVLTQTPSSVSAAVGGTVTINCQSSQSVYSSDYLSWYQQKPGQPPKLLIYEASKLASGVPPRFSGSGSGTQFTLTISGVQCDDAATYYCQGTYYSSGWYFAFGGGTEVVVK
